For assay [1], the target named is T1, Pan1, full length, with a C-terminal fluorescent tag (S. cerevisiae, UniProt P32521 1-1480).
T1 construct: Pan1, S. cerevisiae; gene tagged at its endogenous locus; Linker RTLQVD between protein and C-terminal tag; also called Pan1-mCherry; C-terminus of Pan1; source: S. cerevisiae, expressed from its endogenous locus, in live cells; not shown: GFP or mCherry, C-terminal, kept
T1 sequence (looked up): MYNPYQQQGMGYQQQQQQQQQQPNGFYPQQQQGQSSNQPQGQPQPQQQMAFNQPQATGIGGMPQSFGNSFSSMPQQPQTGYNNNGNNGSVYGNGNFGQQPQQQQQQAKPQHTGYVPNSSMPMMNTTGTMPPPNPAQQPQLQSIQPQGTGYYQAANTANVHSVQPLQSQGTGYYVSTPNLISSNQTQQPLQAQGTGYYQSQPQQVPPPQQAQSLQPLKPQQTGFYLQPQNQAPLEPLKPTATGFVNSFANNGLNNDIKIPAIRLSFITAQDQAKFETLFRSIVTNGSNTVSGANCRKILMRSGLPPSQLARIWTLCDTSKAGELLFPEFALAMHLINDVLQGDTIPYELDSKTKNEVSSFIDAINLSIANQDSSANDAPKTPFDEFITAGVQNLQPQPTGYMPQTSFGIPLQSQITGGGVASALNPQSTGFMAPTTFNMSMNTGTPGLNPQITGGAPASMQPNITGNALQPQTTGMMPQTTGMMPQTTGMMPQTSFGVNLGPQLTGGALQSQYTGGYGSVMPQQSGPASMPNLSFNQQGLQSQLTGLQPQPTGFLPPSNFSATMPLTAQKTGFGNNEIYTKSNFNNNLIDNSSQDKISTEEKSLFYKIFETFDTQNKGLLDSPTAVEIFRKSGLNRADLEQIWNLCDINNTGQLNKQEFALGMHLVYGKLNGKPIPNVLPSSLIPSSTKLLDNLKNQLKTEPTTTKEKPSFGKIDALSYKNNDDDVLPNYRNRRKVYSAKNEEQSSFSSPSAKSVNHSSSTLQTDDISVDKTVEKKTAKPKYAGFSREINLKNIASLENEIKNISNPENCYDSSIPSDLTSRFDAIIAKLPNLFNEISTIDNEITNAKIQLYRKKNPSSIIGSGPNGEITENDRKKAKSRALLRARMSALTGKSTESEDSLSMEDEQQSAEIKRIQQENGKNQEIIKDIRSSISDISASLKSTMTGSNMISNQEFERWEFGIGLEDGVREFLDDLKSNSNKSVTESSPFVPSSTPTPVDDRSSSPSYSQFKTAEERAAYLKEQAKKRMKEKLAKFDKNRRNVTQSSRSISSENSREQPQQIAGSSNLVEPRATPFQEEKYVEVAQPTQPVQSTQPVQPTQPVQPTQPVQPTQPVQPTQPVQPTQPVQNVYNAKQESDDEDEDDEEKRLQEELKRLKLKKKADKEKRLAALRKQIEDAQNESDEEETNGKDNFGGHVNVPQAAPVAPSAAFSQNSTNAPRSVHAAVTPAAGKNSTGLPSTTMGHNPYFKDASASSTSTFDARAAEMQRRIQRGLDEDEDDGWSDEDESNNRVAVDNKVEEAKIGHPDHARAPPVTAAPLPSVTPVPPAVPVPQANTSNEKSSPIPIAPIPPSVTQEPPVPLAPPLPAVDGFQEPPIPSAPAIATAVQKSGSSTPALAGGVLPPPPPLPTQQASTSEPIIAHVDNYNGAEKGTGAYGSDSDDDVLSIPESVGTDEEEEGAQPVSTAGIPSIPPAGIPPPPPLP
The assay is described as follows: FRET or BRET; acceptor photobleaching in live yeast; inner cytoplasmic (nucleus and vacuole free) areas; GFP/mCherry or mTurquoise2/mNeonGreen pairs. The following applies: partners not purified. (In general: In BRET a luciferase serves as donor, and the signal depends on an acceptor being close.)

A further assay deals with T2, Ede1-mCherry (S. cerevisiae, UniProt P34216 1-1381).
T2 construct: Ede1 (Eps15/R homolog), S. cerevisiae; gene tagged at its endogenous locus, no truncation told; Linker RTLQVD between protein and C-terminal tag; source: S. cerevisiae, expressed from its endogenous locus, in live cells; not shown: mCherry, C-terminal, kept
T2 sequence (looked up): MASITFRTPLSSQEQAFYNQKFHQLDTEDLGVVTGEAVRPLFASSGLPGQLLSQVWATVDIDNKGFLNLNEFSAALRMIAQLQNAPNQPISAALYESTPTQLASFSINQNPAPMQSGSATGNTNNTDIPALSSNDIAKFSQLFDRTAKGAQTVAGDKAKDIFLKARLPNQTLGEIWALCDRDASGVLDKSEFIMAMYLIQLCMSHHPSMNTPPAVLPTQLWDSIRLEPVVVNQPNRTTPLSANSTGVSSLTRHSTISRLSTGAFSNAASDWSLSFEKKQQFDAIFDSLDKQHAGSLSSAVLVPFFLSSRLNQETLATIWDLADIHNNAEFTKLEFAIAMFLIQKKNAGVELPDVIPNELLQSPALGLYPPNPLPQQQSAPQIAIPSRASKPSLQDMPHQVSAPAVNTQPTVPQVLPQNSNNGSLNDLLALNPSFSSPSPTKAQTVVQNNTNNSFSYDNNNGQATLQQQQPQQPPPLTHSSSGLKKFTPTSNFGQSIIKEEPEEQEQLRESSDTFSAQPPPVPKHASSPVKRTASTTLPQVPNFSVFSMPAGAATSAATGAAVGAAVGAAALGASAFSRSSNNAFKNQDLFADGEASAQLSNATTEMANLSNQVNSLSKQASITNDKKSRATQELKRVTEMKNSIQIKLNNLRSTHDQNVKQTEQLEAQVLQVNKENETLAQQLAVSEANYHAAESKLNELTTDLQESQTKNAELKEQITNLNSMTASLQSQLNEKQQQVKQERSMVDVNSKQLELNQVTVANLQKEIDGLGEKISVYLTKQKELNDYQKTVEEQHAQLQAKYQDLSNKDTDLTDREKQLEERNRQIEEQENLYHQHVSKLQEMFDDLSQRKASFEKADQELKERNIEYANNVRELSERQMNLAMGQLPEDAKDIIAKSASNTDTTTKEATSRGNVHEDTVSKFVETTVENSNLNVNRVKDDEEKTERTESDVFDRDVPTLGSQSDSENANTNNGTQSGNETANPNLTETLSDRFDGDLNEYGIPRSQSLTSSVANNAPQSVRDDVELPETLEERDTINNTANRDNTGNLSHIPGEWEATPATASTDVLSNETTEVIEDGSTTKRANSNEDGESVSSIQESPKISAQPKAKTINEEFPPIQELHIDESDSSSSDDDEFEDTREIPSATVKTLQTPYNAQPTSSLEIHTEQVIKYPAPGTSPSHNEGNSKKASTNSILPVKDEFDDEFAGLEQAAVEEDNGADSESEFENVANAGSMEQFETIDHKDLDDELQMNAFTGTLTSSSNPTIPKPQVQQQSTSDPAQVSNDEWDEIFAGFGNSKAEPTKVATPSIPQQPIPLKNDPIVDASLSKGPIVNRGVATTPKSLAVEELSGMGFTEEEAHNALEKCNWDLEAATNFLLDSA
Described as above. The following applies: partners not purified.

The record followed here is article PMC7218409, “The protein architecture of the endocytic coat analyzed by FRET microscopy” (Molecular Systems Biology, 2020).

B1: GFP-End3 (natural protein, S. cerevisiae, UniProt P39013 1-349, looked up)
chain: MPKLEQFEIKKYWQIFSGLKPIENKVNHDQVLPILYNSKLDSSVLNKIWFLADIDDDDNLDFEEFVICMRLIFDMVNKNISSVPDELPDWLIPGSKVNLIKERKKRKQIENADLPPKKEIKVDWYMSPDDLNQYEKIYNSCAKLTDGTITFNELSTKLSTKFFNISKTDLNKVWSLINPQNLPSIDRDPTFYFIHCLRQRNDLGAEIPASLPNSLAEVCNKKQLSYDLRSSQPPTKRKEEANEVDNLRDNGQNSSSDSSGSNVLSNEDSIKQKYASLTDDQVANMREQLEGLLNYKKSEKTQGGSKLSKRINIRSITDDLDNIEQQVEVLENYLNNKRHELQALQAEIN
notes: End3, S. cerevisiae; gene tagged at its endogenous locus, no truncation told; Linker GS(GGGGS)3ATENNS between N-terminal tag and protein; also called N-terminus of End3; source: S. cerevisiae, expressed from its endogenous locus, in live cells; not shown: GFP, N-terminal, kept
Molecule B1 registered an FRET efficiency in assay [1] of 4.5%.

B2: Syp1-GFP (natural protein, S. cerevisiae, UniProt P25623 1-870, looked up)
chain: MTEQRTKYADSILTTKSPYEATETIRIRLSQVKLLNKDFYLLFKELANLKRNYAQQLRKIIAENEDITKILNAQMIESNVLTPQEMSAFRFNSLGELRNVWDTVIEELKSDLKSSTEYYNTLDQQVVRELKESVENNTSWRESKDLHSKLSKNAASIEHYSKNNENSSHLEEARRQWDQQSPYLFELFETIDYNRLDTLKNCMLRFQTSFSDYLLNTTKECETVMTKFLAFEPQSEIDRFAKDASQYNFQLSSSSKEVVPNNASPASATGARPVSVSNGAANTEREKKSPQKDKRKSAFGNIGHRLASASSSLTHNDLMNNEFSDSTNNSSLKSKKSSHTLRSKVGSIFGRNKTKNKRQQQSSSNSHIQASITETPNNSSTRVSSTATSSIYQKQRRPTYSSSKSNNWTPGEASDTPPLPPHATPKNVDAPVTADTPPAQTFTPSEVPPSTPQQSSPPTAKEPDSSNLPKTVPISISQPPLQPQSKTKPLPVEPASPSISLPTATVDNQPSGQVDSRPLHIRAPALPPSRKQNFIHNRDSQLYDSLPNHGSGATPTSSSLSSIPQERPVSTLSSQITGELRELNPQATGSSTSLVGQSLFQHSSLDTSQFGLNASIAEVLNASFKDGMLQNSQLIGEIALNYLPNSVMNSPLPIGINLRINNGAKFEKVILNQAFIERVAPEEFKVNPSFIDSRTLGAIKYSIKEPIAPIVIHPVWRFESHQASVVLTVKMSPSLPDEISQIVIEDLVVFVNIDGANATSALSKPQGSFSKEKKRITWRFKEPVVLTRNGEGQRLIARFITDGLAHESAKGVITKFTISETDNVALPHSGAGSGITLTCQELDENNPFGGEWLDVNTKRTLTTGNYHGLA
notes: Syp1 (FCHo1/2 homolog), S. cerevisiae; gene tagged at its endogenous locus, no truncation told; Linker RTLQVD between protein and C-terminal tag; source: S. cerevisiae, expressed from its endogenous locus, in live cells; not shown: GFP, C-terminal, kept
In the assay with Ede1-mCherry, B2 yielded an FRET efficiency of 2.5%.
